Numbering of substitutions follows the chain as printed. Blank lines part the entries; values can stand above or below the binder they belong to.
Key:
[1] = molecular target: T1, recombinant human galectin-10, TEV-cleaved (human, UniProt Q05315 1-142); experiment: cell-based or functional assay
T1 sequence: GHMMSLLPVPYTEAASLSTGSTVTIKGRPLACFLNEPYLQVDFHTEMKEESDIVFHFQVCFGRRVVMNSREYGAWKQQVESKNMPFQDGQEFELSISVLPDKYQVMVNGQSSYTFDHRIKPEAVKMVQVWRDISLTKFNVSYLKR

[2] = molecular target: T2, human galectin-10-His (human); experiment: ELISA, galectin-10-His coated at 1 ug/mL, Fab
T2 construct: The last M of the tag may be Met1 of galectin-10; also called humanGal10-His; hGal10
T2 chain: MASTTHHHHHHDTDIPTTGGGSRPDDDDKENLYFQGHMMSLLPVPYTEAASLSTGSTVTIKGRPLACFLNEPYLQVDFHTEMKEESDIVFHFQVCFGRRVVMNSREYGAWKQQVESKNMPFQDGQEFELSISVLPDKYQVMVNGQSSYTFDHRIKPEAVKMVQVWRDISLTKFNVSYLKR
Procedure: The binding capacity of the lead anti-galectin-10 Fabs was tested by binding ELISA. Briefly, a Maxisorp plate was coated overnight with 1 μg/mL of human galectin-10-His. Then a serial dilution of each clone (from 4 μM, dilution 1/4, 12 points of dilutions) was incubated on coated galectin-10. After several washing steps, detection of the bound Fab was carried out with an anti-human IgG Fab specific-peroxidase. Absorbance was measured at 450 nm (reference at 620 nm) with Tecan instrument.

[3] = molecular target: T1, recombinant human galectin-10, …; experiment: cell-based or functional assay; remark: listed apart in the source
[4] = molecular target: T3, cynomolgus galectin-10-His, WGS isoform (cynomolgus); experiment: ELISA, coated antigen 0.5 ug/mL
T3 construct: also called cynoGal10-WGS; not shown: His tag
T3 chain: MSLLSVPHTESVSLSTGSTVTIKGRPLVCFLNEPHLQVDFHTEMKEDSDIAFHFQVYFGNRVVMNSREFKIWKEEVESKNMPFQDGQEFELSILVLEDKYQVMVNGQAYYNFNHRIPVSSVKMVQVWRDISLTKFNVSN
Procedure: (§1) In a similar setup to that used during the characterization of the scFv-human Fc molecules, the relative binding properties of the 7 mouse IgG1 antibodies were analyzed by ELISA. A Maxisorp plate was coated overnight with 0.5 μg/mL of human or cynomolgus WGS or YRT isoform of galectin-10-His. Then a serial dilution of each clone (from 100 nM, dilution 1/4, 12 points of dilutions) was incubated on coated galectin-10. After several washing steps, detection of the bound mouse IgG1 was carried out with an anti-mouse Fc-HRP antibody (DAMPO, Jackson ImmunoResearch, Catalog 715-035-150). Absorbance was measured at 450 nm (reference at 620 nm) with Tecan instrument. The raw data (OD values) were plotted on GraphPad Prism 7.01. The EC50 values for each antibody, calculated with a non-linear regression (log(agonist) vs. response Variable slope (four parameters)), are shown in the table below. Antibody 1D11 from the previous panel was included for comparison.

[5] = molecular target: T2, human galectin-10-His; experiment: ELISA, coated antigen 0.5 ug/mL
Procedure: as §1

[6] = molecular target: T2, human galectin-10-His; experiment: SPR Biacore T3000, mouse IgG1 captured
Procedure: The binding capacity of the mouse IgG1 antibody panel to galectin-10 was analysed on Biacore T3000. For this purpose, a capture approach was used, where a fixed concentration (1.5 μg/mL) of the mouse IgG1 clone was captured by polyclonal anti-mouse Fc antibodies immobilized on CM5 Chip to reach a binding signal around 150 RU. Then a serial dilution of human and cynomolgus WGS isoform of galectin-10-His (serial dilution, 1 over 2 from 5 μg/mL) diluted in HBS-EP pH7.4 was injected. Raw data were analysed via BIA evaluation software with a blank subtraction. The kd/KD and Rmax of each mAbs to galectin-10-His was determined using the Fit Kinetics simultaneous ka/kd/Binding with mass transfer/Local Rmax on BIA evaluation software.

[7] = molecular target: T4, human galectin-10-His (recombinant human galectin-10 with TEV-cleavable N-terminal His-tag) (human); experiment: ELISA, mouse IgG1 on coated galectin-10-His (0.2 ug/mL)
T4 construct: SEC-MALLS: dimer in solution; also called Gal10-His; humanGal10-His
T4 chain: T2 chain
Procedure: In a similar setup to that used during the characterization of the scFv-human Fc molecules, the relative binding affinities of the 10 mouse IgG1 antibodies were analyzed by ELISA. A Maxisorp plate was coated overnight with 0.2 μg/mL of galectin-10-His. Then a serial dilution of each clone (from 100 nM, dilution 1/4, 12 points of dilutions) was incubated on coated galectin-10. After several washing steps, detection of the bound mouse IgG1 was carried out with an anti-mouse Fc-HRP antibody. Absorbance was measured at 450 nm (reference at 620 nm) with Tecan instrument. A mouse IgG1 isotype control was used as negative control. A polyclonal anti-galectin-10 antibody was used as positive control for the coating of galectin-10. The raw data (OD values) were plotted on GraphPad Prism 7.01. The EC50 values for each antibody, calculated with a non-linear regression (log(agonist) vs. response Variable slope (four parameters)), are reported in Table 7 below.

[8] = molecular target: T4, human galectin-10-His (recombinant …); experiment: BLI tandem on galectin-10-His; competitor: saturating 2C07 mIgG1 (10 ug/mL)
Procedure: (§2) In order to identify the galectin-10 binding sites of the different clones, an epitope mapping method (TANDEM), using the BLI technology, was established. Briefly, the galectin-10-His was captured on anti-HIS 1K sensor tips, before incubation with an excess of one antibody (called the “saturating” antibody) then directly transferred to a solution containing the “competitor” antibody at a suboptimal concentration. If the “saturating” and the competitor antibody bind to the same binding sites, no binding of “competitor” will be detected (expressed in nm shift).

[9] = molecular target: T4, human galectin-10-His (recombinant …); experiment: BLI tandem on galectin-10-His; competitor: saturating 6E10 mIgG1 (10 ug/mL)
Procedure: as §2

[10] = molecular target: T4, human galectin-10-His (recombinant …); experiment: BLI tandem on galectin-10-His; competitor: saturating 2F09 mIgG1 (10 ug/mL)
Procedure: as §2

[11] = molecular target: T4, human galectin-10-His (recombinant …); experiment: BLI tandem on galectin-10-His; competitor: saturating 6A08 mIgG1 (10 ug/mL)
Procedure: as §2

[12] = molecular target: T4, human galectin-10-His (recombinant …); experiment: BLI tandem on galectin-10-His; competitor: saturating 6A05 mIgG1 (10 ug/mL)
Procedure: as §2

[13] = molecular target: T4, human galectin-10-His (recombinant …); experiment: BLI tandem on galectin-10-His; competitor: saturating 6F06 mIgG1 (10 ug/mL)
Procedure: as §2

[14] = molecular target: T4, human galectin-10-His (recombinant …); experiment: BLI tandem on galectin-10-His; competitor: saturating 1D11 mIgG1 (10 ug/mL)
Procedure: as §2

[15] = molecular target: T4, human galectin-10-His (recombinant …); experiment: BLI tandem on galectin-10-His; competitor: saturating 4E08 mIgG1 (10 ug/mL)
Procedure: as §2

[16] = molecular target: T4, human galectin-10-His (recombinant …); experiment: BLI tandem on galectin-10-His; isotype control as saturating antibody (10 ug/mL)
Procedure: as §2

[17] = molecular target: T4, human galectin-10-His (recombinant …); experiment: SPR Biacore T3000, mouse IgG1 captured by anti-mouse Fc, galectin-10-His as analyte
Procedure: The binding capacity of the mouse IgG1 antibodies to galectin-10 was analyzed on Biacore T3000. For this purpose, a capture approach was set up. A CM5 Chip was coated with polyclonal anti-mouse Fc at 8000 RU, then a fixed concentration of the mouse IgG1 antibody panel (1.5 μg/mL), diluted in HBS-EP pH7.4, was captured to reach a binding signal around 150 RU. Finally, a serial dilution of galectin-10-His (serial dilution, 1 over 2 from 5 μg/mL) diluted in HBS-EP pH7.4 was injected. Raw data were analyzed via BIA evaluation software with a blank subtraction (4-3). The kd/KD and Rmax of each mAb to galectin-10-His was determined using the Fit Kinetics simultaneous ka/kd/Binding with mass transfer/Local Rmax on BIA evaluation software.

[18] = molecular target: T4, human galectin-10-His (recombinant …); experiment: BLI tandem on galectin-10-His; competitor: saturating 6B06 mIgG1 (10 ug/mL)
Procedure: as §2

[19] = molecular target: T5, TEV-cleaved wild-type recombinant human galectin-10 (soluble, in Fab complexes, or as recombinant galectin-10 … (human, UniProt Q05315 1-142)); experiment: cell-based or functional assay
T5 sequence: T1 sequence

[20] = molecular target: T4, human galectin-10-His (recombinant …); experiment: BLI tandem on galectin-10-His; competitor: saturating 1C09 mIgG1 (10 ug/mL)
Procedure: as §2

B1: 11F02 Fab (Fab, V domains shown)
VH: ELQVVESGGGLVQPGGSLRLSCAASGFTFSTNYMNWVRQAPGKGLEWVSGITSHGARTYYADSVKGRFTISRDNSKNTLYLQMNSLKPEDTALYYCARTDHASLDAWGQGTLVTVSS
VL: QTVVTQEPSLSVSPGGTVTLTCGLSSGSVTSSNYPGWYQQKPGQAPRTLIYNTNSRYSGVPNRFSGSISGNKAALTITGAQPEDEADYYCALYMGSSSYNTVFGGGTHLTVL
notes: Fab with human CH1 (including part of the hinge region) and human lambda constant domain; also called 11F02 hFab
50% crystal dissolution (min), 50 uM [1]: 77.9 min | 90% crystal dissolution (min), 50 uM [1]: > 120 min | Bmax [2]: 0.46 OD | EC50 [2]: 81400 pM

B2: 11F12 Fab (Fab, V domains shown)
VH: B1 VH with E1Q, L2V, V4L, V5Q, H54G, A56G, S75A, S103W
VL: HSAVTQPPSVSGTLGKTVTISCAGTSSDVGYGNYVSWYQHLPGTAPKLLIYAVSTRASGVPDRFSGSKSGNTASLTISGLQSEDEGDYYCASYSVRNNVVFGGGTRLTVL
notes: Fab with human CH1 (including part of the hinge region) and human lambda constant domain; also called 11F12 hFab
50% crystal dissolution (min), 50 uM [1]: 62 min | 90% crystal dissolution (min), 50 uM [1]: > 120 min | Bmax [2]: 1.38 OD | EC50 [2]: 22400 pM

B4: 1D11 Fab (Fab, V domains shown)
VH: QVQLVESGGGLVQPGGSLRLSCAASGFTFDDYAMSWVRQAPGKGLEWVSGISWNGGSTYYAESMKGRFTISRDNAKNTLYLQMNSLKSEDTAVYYCAKDRNLGYRLGYPYDYWGQGTQVTVSS
VL: QSVLTQPPSVSGSPGETVTISCAGTSSDVGYGNYVSWYQQLPGMAPRLLIYEVNKRASGITDRFSGSKSGNTASLTISGLQSEDEGDYYCASYRSSNNAVFGGGTHLTVL
notes: Fab with human CH1 (including part of the hinge region) and human lambda constant domain; also called Fab-1D11; 1D11 hFab
50% crystal dissolution (min), 50 uM [1]: 33.4 min | 90% crystal dissolution (min), 50 uM [1]: 97.8 min | Bmax [2]: 1.59 OD | EC50 [2]: 1400 pM

Continued, in another order:

50% dissolution (min) of CLCs, antibody 50 uM [3]: 30.1 min | 90% dissolution (min) of CLCs, antibody 50 uM [3]: 56.7 min | 50% crystal dissolution (min), 50 uM [1]: 100 min | 90% crystal dissolution (min), 50 uM [1]: > 120 min | OD values [4]: 0.05 OD | EC50 [5]: 100 pM | OD values [5]: 2 OD | Kd [6]: 700 pM | koff [6]: 0.00931 s⁻¹ | kon [6]: 1.27e+07 M⁻¹ s⁻¹
B3: 1D11 mouse IgG1 (antibody, V domains shown)
VH: B4 VH
VL: B4 VL
notes: Llama VH and VL on mouse IgG1 heavy chain constant domains (CH1-CH2-CH3) and mouse lambda light chain constant domain; also called 1D011; 1D11 mIgG1
binding result [4]: no binding (tested: serial dilution from 100 nM)

Bmax [7]: 3.29 OD | EC50 [7]: 50 pM | binding signal (nm) [8]: 0.05 nm | binding signal (nm) [9]: 0.03 nm | binding signal (nm) [10]: 0.03 nm | binding signal (nm) [11]: 0.07 nm | binding signal (nm) [12]: 0.12 nm | binding signal (nm) [13]: 0.06 nm | binding signal (nm) [14]: 0.12 nm | binding signal (nm) [15]: 0.1 nm | binding signal (nm) [16]: 1.14 nm | Kd [17]: 300 pM | koff [17]: 0.00034 s⁻¹ | binding signal (nm) [18]: 0.03 nm | 100% Solubilization of CLC (Conc uM) [19]: 10.7 µM | binding signal (nm) [20]: 0.04 nm
B5: 2F09 mouse IgG1 (antibody, V domains shown)
VH: QVQVQESGPGLVKPSQTLSLTCTVSGGSITTNYFYWSWIRQSPGKGLEWIGAIAYSGRTYYSPSLKSRTSISRDTSNNQFTLQLSSVTPEDTAVYYCARGPKGLASYYDYWGQGTQVTVSS
VL: SSALTQPSAVSVSLGQTARITCQGGNFGYYYVSWYQQKPGQAPVLVIYRDSGRPSGIPERFSGSSSGDTATLTISGAQAEDEADYYCQSGSSSDNTVFGGGTHLTVL
notes: VH on mouse IgG1 heavy chain constant domains (CH1-CH2-CH3), VL on mouse lambda light chain constant domain; also called 2F09 mIgG1

— patent US20190367619A1 (ARGENX, published 2019)
